B1: VH:VL chains; a variant is named by its letters at X, in order (parent)
chain 1: QVQLVQSGAEVKKPGASVKVSCKASGYTFTDYXMHWVRQAPGQGLEWMGXVNPNXXXTTYNQKFEGRVTMTTDTSTSTAYMELRSLRSDDTAVYYCARXNXLDXWGQGTTVTVSS
chain 2: DIQMTQSPSSLSASVGDRVTITCSVSSSVSSIYLHWYQQKPGKAPKLLIYSTSNLASGVPSRFSGSGSGTDFTLTISSLQPEDFATYYCQVYSGYPLTFGGGTKVEIK

Variants of: B1
Assay: yeast display scFab, FACS + sequencing
How it was run: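 For the non-specific binding call, a heavy-chain CDR mutant scFab library on the yeast surface was FACS-sorted and samples from two replicates were deep sequenced. Cells were labelled with anti-Myc and either biotinylated ovalbumin (260 μg/mL in PBSB, 3 h, room temperature) or soluble membrane proteins (130 μg/mL, 20 min on ice), with gates on the top 25% and bottom 10% of binders. With membrane protein and ovalbumin samples pooled, a sequence in ≥3 of 4 positive samples and no negatives was scored positive, and the converse rule scored negatives.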

Row | Variant | non-specific binding call
1 | DAKEGAGD | no binding
2 | FAGGGDLV | no binding
3 | YAKRDALA | no binding
4 | VAGTDDWV | no binding
5 | VAGRSDLV chain 1 R67H | no binding
6 | SAGRSDLV chain 1 R67H | no binding
7 | DAGTDAGD | no binding
8 | YARETDGA | no binding
9 | AARADDGV | no binding
10 | AARADDGS | no binding
11 | YAGTGDLV | no binding
12 | VAREDDWA | no binding
13 | FAKEGFWD | binds
14 | AAGRAYGA | binds
15 | YAGRTAGV | binds
16 | DAGGGDGA | no binding
17 | DAGGGSSS | no binding
18 | DAGGGSSD | no binding
19 | SARADSGV | no binding
20 | YAGRGDSA | no binding
21 | YAGRGDAS | no binding
22 | YAGRGDAD | no binding
23 | AARADFGV | no binding

Row | Variant | non-specific binding call
24 | FAKEGDGD | no binding
25 | VARETDVA | no binding
26 | DAKTDDGV | no binding
27 | SAREGDAV | no binding
28 | DAKEGAAA | no binding
29 | DAKKNASF | no binding
30 | DAGKGAVY | no binding
31 | DAGKGAVV | no binding
32 | DAGRGAVS | no binding
33 | SAGTGSWD | no binding
34 | DAGGGYSV | no binding
35 | SAREGDLA | no binding
36 | YAGTGFWV | binds
37 | YARADDSA | no binding
38 | SAGRGVGS | binds
39 | YAGKGAWV | binds
40 | VAGTGDVF | no binding
41 | VAGTGDVY | no binding
42 | VAGTGDVA | no binding
43 | AAGRGFLD | no binding
44 | SAREGYSV | binds
45 | YAGRGDLA | no binding
46 | YAGRGDLD | no binding

Row | Variant | non-specific binding call
47 | YAGRGDLV | no binding
48 | YAGRGSAS | no binding
49 | FAGGSFAS | binds
50 | YAGTGVVD | binds
51 | FAGGGDWV | no binding
52 | FAGGGDGD | no binding
53 | YAREDDGA | no binding
54 | VAKRDSAS | no binding
55 | YAGRGASA | no binding
56 | AAGGNAWS chain 1 G66S | no binding
57 | DARETFLD | no binding
58 | VAGTGDGV | no binding
59 | VAGTGDGA | no binding
60 | VAGTGDGY | no binding
61 | YAGRGVVD | binds
62 | VAGTGDWY | no binding
63 | VAGTGDWF | no binding
64 | VAGTGDWD | no binding
65 | VAGTGDWA | no binding
66 | VAGTGDWV | no binding
67 | AARADSAD | no binding
68 | DAGKGAGD | no binding
69 | SAGKDDLA | no binding

Row | Variant | non-specific binding call
70 | VARADSGV | no binding
71 | YAKEGDGV | no binding
72 | SAREGALD | no binding
73 | YARETDVV | no binding
74 | SAGRGDWD | no binding
75 | DAGRSDLV chain 1 R67H | no binding
76 | AAGRSDLV chain 1 R67H | no binding
77 | FAGTGSWD | no binding
78 | FAKRGAWS | binds
79 | YARADAAA | no binding
80 | VAGTDAGA | no binding
81 | VAGTDAGD | no binding
82 | YAGKGFGA | binds
83 | SAKRDSAS | no binding
84 | VAKEGAWV | binds
85 | DAGKGALF | no binding
86 | DAKEGSSA | no binding
87 | DAGTGDGV | no binding
88 | VAGKGVLD | binds
89 | DAKENAVY | no binding
90 | YAGRGFGF | binds
91 | YAGRGFGA | binds
92 | YARADDAS | no binding

Row | Variant | non-specific binding call
93 | DARENAGY | no binding
94 | VAGTGSLD | no binding
95 | AARADAVV | no binding
96 | AARADAVY | no binding
97 | AARADAVA | no binding
98 | FAKTDAGF chain 1 G108D | binds
99 | SAGRGSAA | binds
100 | YARADSGD | no binding
101 | FAGRGYSD | binds
102 | DAKEGDAD | no binding
103 | DAKEGDAV | no binding
104 | FAGTSVGS | binds
105 | YARAGSVS | binds
106 | DAGTGAGD | no binding
107 | VAGRSFGS | binds
108 | DAGKSDWY | no binding
109 | FAGRDAVV | binds
110 | YAKRGSWA | binds
111 | YAKADSGA | binds
112 | YAGKTSAD | binds
113 | FAGRGSAD | binds
